Consider seven molecules from US20210371489A1, “SITE 2 SINGLE-CHAIN INSULIN ANALOGUES” (Case Western Reserve University, priority 2018, published 2021).

Test [1] relates to diabetic Sprague-Dawley rats. The note with it: diabetic (streptozotocin) Sprague-Dawley rats; cited from earlier work.
A further test has as its target insulin receptor (IR) (Homo sapiens, UniProt P06213). The settings on record: cited from earlier work.
Test [2] addresses T1, FLAG epitope-tagged holoreceptor of human type 1 insulin-like growth factor receptor (human, UniProt P08069 31-1367, limits assumed).
T1 construct: mature; Holoreceptor captured on 96 well plates coated with anti-FLAG monoclonal antibody; The natural receptor is processed from one precursor into alpha and beta chains; also called hIGFR; IGF-1R
Description: ratio of dissociation constants from competitive displacement of 125I-IGF-I on plate-captured FLAG-tagged hIGFR; relative to insulin lispro. The source says:
Cross-reactivity of the single-chain insulin analogues with IGF-1R was studied using a FLAG epitope-tagged holoreceptor to human type 1 insulin-like growth factor receptor (hIGFR) bound to 96 well plates coated with anti-FLAG monoclonal antibody. […] This is used as a marker for mitogenic potential, where less IGF-R affinity is interpreted as lower mitogenic potential.

With “2-F-PheB24-DKP-insulin: derivative of DKP-insulin containing ortho-monofluoro-phenylalanine at position B24”, in test [1], the in vivo potency result was “potency and duration of signaling are enhanced”. The “receptor-binding affinity relative to KP-insulin” value in the test with insulin receptor (IR) was “ca. 35(±5) %”.

B1: single-chain insulin EA8, EA14, QA17, PE, EAGPRR (ligand)
chain: FVNQHLCGSHLVEALYLVCGERGFFYTPETEAGPRRGIVEQCCESICSLEQLQNYCN
notes: Single-chain insulin analogue (B domain, 6-residue C domain, A domain)
As for B1, the “IGF1-R (Rel. Aff.)” value in test [2] was 11%.

B2: single-chain insulin HA8, EA14, QA17, PE, EAGPRR (ligand)
chain: FVNQHLCGSHLVEALYLVCGERGFFYTPETEAGPRRGIVEQCCHSICSLEQLQNYCN
With B2, the “IGF1-R (Rel. Aff.)” value in test [2] was 18%.

B3: single-chain insulin EA8, EA14, RA17, EP, EAGPRR (ligand)
chain: FVNQHLCGSHLVEALYLVCGERGFFYTEPTEAGPRRGIVEQCCESICSLEQLRNYCN
As for B3, the “IGF1-R (Rel. Aff.)” value in test [2] is 5%.

B4: single-chain insulin EA8, EA14, RA17, PE, EAGPRR (ligand)
chain: FVNQHLCGSHLVEALYLVCGERGFFYTPETEAGPRRGIVEQCCESICSLEQLRNYCN
For the molecule B4, the “IGF1-R (Rel. Aff.)” value in test [2] was determined as 25%.

B5: single-chain insulin HA8, EA14, FB17, PE, EEGPRR (ligand)
chain: FVNQHLCGSHLVEALYFVCGERGFFYTPETEEGPRRGIVEQCCHSICSLEQLENYCN
B5: in test [2], the “IGF1-R (Rel. Aff.)” value turned out to be 16%.

B6: single-chain insulin HA8, EA14, NB17, PE, EEGPRR (ligand)
chain: FVNQHLCGSHLVEALYNVCGERGFFYTPETEEGPRRGIVEQCCHSICSLEQLENYCN
As to B6, the “IGF1-R (Rel. Aff.)” value in test [2] amounted to 2%.
